Reference: patent US20230111212A1, “MUSCLE TARGETING COMPLEXES AND USES THEREOF FOR TREATING DYSTROPHINOPATHIES” (Dyne Therapeutics, Inc., priority 2020, published 2023)

Assays:
[1] = target: human transferrin receptor 1 (human) (UniProt P02786); test: Carterra LSA at 25C, IgG captured on anti-IgG lawn, hTfR1 injected, 1:1 Langmuir fit
[2] = target: human transferrin receptor 2 (human) (UniProt Q9UP52); test: ELISA on human TfR2, RFU
Sequence of human transferrin receptor 2 (human) (Q9UP52 105-801 limits assumed): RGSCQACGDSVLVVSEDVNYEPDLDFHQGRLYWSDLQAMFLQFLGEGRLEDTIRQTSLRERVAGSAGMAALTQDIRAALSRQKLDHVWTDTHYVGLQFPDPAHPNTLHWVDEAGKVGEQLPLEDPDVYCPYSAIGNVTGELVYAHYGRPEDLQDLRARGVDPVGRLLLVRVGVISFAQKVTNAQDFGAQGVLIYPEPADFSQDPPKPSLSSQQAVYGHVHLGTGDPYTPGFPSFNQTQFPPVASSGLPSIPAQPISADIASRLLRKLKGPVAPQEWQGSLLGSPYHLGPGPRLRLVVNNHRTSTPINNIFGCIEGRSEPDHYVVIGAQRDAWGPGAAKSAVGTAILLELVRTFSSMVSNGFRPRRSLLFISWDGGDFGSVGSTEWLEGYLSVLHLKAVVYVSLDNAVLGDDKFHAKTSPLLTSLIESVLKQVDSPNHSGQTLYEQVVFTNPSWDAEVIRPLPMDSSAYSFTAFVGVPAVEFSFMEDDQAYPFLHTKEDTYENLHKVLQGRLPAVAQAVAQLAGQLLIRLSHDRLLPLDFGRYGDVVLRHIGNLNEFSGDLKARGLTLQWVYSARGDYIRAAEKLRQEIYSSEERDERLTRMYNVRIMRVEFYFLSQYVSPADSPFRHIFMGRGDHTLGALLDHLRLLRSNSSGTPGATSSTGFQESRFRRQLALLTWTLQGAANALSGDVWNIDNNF

Sequence of human transferrin receptor 1 (human) (P02786 89-760 limits assumed): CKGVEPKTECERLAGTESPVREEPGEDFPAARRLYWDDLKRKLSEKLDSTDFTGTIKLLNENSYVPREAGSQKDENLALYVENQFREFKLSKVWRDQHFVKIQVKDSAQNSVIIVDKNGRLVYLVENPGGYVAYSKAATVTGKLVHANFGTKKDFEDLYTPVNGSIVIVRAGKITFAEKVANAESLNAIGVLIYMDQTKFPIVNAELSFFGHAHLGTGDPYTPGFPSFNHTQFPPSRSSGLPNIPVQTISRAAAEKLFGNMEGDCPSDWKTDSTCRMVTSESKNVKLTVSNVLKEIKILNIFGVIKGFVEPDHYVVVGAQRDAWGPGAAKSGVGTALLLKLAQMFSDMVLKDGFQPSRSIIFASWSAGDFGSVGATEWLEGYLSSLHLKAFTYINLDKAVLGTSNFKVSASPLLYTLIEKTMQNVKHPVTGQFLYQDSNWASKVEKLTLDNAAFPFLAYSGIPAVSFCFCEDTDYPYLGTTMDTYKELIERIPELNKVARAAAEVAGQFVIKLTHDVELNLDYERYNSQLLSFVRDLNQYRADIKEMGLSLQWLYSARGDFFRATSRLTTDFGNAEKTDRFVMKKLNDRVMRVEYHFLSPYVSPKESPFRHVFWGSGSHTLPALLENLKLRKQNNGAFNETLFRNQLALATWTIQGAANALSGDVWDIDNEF

Kd [1]	kon [1]	EC50 (read off the curve) [2]	Substance
0.536 nM	774000 M⁻¹ s⁻¹	–	OKT9 mIgG (antibody)
–	–	2 nM	TfR2 Monoclonal Antibody (OTI1B1)
